The text below walks through data of paper PMC8654040 (Nature structural & molecular biology, 2021).

The target of assay [1] is T1, FUS SYGQ LC (FUS 1-163), N-terminal low complexity domain (UniProt P35637 1-163).
T1 sequence (looked up): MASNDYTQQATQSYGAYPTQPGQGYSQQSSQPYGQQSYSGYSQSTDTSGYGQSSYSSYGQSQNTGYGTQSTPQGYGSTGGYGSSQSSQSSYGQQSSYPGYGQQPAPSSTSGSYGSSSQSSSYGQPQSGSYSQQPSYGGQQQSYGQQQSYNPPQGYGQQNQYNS
Kind of assay: intermolecular NOE NMR of a condensed phase.

In assay [2] the target is T1, FUS SYGQ LC (FUS 1-163), N-terminal low …. Kind of assay: co-sedimentation.

B1: FUS RGG3 (453-507) (domain or fragment, UniProt P35637 453-507, looked up)
chain: DGPGGGPGGSHMGGNYGDDRRGGRGGYDRGGYRGRGGDRGGFRGGRGGGDRGGFG
For B1, the binding result in assay [1] is on record as “binds”.

B2: 488-labeled FUS SYGQ LC (FUS 1-163 labelled with DyLight 488 NHS ester) (domain or fragment, UniProt P35637 1-163, looked up)
chain: MASNDYTQQATQSYGAYPTQPGQGYSQQSSQPYGQQSYSGYSQSTDTSGYGQSSYSSYGQSQNTGYGTQSTPQGYGSTGGYGSSQSSQSSYGQQSSYPGYGQQPAPSSTSGSYGSSSQSSSYGQPQSGSYSQQPSYGGQQQSYGQQQSYNPPQGYGQQNQYNS
modifications: DyLight 488 (NHS ester labelling)
B2: in assay [2], the binding result was “binds”.
